Patent publication US20250042994A1 (HAINAN SIMCERE ZAIMING PHARMACEUTICAL, published 2025)
Positions count from the first letter of the chain named. Each block holds one binder with its values, some of them ahead of it.

How the values were obtained:
[1] = molecular target: T1, cynomolgus monkey CD19 on peripheral blood B cells (cynomolgus monkey (Macaca fascicularis), UniProt A0A2K5W8L9 20-557); experiment: FACS, cynomolgus PBMC, CD20+ B cells
T1 construct: whole, on cells; also called cynomolgus monkey B cells
T1 sequence: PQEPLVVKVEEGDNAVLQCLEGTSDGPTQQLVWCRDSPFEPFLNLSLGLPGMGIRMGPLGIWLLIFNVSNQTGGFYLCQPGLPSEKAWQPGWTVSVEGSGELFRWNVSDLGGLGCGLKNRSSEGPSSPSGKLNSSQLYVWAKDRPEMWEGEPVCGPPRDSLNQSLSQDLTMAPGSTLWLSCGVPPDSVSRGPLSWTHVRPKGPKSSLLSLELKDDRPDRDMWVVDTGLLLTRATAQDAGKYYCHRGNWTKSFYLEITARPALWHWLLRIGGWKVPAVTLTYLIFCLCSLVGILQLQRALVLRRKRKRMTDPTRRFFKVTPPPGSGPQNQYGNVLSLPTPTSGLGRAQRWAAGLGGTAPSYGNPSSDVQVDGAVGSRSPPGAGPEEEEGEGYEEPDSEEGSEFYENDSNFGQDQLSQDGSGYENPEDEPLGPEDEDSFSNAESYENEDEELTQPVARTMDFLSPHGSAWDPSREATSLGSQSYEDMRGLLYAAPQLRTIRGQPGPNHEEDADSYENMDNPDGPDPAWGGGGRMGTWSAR
Method: The monkey peripheral blood mononuclear cells were extracted from fresh cynomolgus monkey peripheral blood (purchased from Shanghai Medicilon Inc.) according to the instructions of Ficoll-Paque Plus (purchased from GE Healthcae, catalog number: 171440-02). After the cell suspension was centrifuged, the cells were resuspended in PBS containing 1% BSA, and then the cells were counted. […] The mixture was incubated for 1 h at room temperature. After washing the cells three times, APC-labeled secondary antibody anti-human IgG Fc (catalog number: 409306, purchased from Biolegend) was added. After incubation at room temperature in the dark for 30 minutes, the cells were washed 5 times, gently resuspended with PBS containing 1% BSA, and detected and analyzed by FACS (FACS Canto™, purchased from BD Company), in which CD20 was used as a marker of B cells to gate the CD20-positive B cell population, the proportion of the chimeric antibody-labeled positive cells was analyzed, and the proportion of the chimeric antibody positive cell population to B cell population was calculated after treatments with the chimeric antibodies at the concentrations of 100 nM, 10 nM and 1 nM, respectively.

human CD19 on Raji cells = molecular target: T2, human CD19 on Raji cells (human, UniProt P15391 20-556); experiment: FACS on Raji cells
T2 construct: whole, on cells
T2 sequence (looked up): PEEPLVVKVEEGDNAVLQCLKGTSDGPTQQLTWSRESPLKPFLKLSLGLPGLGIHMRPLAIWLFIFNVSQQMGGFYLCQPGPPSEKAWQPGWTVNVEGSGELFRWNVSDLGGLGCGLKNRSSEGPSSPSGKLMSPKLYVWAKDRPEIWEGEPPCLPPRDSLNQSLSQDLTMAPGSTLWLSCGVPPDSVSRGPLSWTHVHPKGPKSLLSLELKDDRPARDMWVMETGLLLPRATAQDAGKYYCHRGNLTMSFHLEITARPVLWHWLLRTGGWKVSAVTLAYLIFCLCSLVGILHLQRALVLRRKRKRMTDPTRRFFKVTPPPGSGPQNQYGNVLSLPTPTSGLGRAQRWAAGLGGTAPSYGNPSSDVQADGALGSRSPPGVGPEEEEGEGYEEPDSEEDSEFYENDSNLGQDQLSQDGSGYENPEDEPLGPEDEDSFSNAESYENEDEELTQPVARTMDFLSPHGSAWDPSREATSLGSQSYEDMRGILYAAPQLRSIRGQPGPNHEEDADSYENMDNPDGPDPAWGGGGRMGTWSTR

[2] = molecular target: T3, human CD19 on CHO-K1-human CD19 cells (human, UniProt P15391 20-556); experiment: FACS on CHO-K1-human CD19 cells
T3 construct: whole, on cells; also called CHO-K1-human CD19-2C8
T3 sequence (looked up): T2 sequence (looked up)

[3] = molecular target: T4, monkey CD19 on HEK293T-monkey CD19 cells (monkey); experiment: FACS on HEK293T-monkey CD19 cells
T4 construct: whole, on cells
How it was run: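 Cells blocked in PBS + 2% (w/w) BSA at 2×10⁶ cells/ml, then incubated with test antibody on ice for 2 h. After washes, binding read by flow cytometry as mean fluorescence intensity (MFI). EC50 from fitted MFI curves. Parental HEK293T cells run by the same method.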

B1: F3.114.12 (antibody, human IgG1, V domains shown)
VH: DVQLQESGPGLVKPSQSLSLTCSVTGYSITSGYDWNWIRQFPGNKLEWMGYISYDGKNNYNPSLRNRISITRDTSKNQFFLKLNSVTTEDTATYYCARRDLRGYFDVWGTGTTVTVSS
VL: DIVLTQSPATLSVTPGDRVSLSCRASQSISNYLHWYQQKSHESPRLLIKYASLSISGIPSRFSGSGSGTDFTLSINSVETEDFGVYFCQQSNSWPLTFGAGTKLELK
notes: human-murine chimeric antibody, human IgG1
- Proportion of chimeric antibody positive cells to B cells (%) at 1 nM [1]: 40%
- Proportion of chimeric antibody positive cells to B cells (%) at 10 nM [1]: 90%
- Proportion of chimeric antibody positive cells to B cells (%) at 100 nM [1]: 99%
- EC50 (human CD19 on Raji cells): 3.34 nM
- Maximum mean fluorescence intensity (human CD19 on Raji cells): 28700
- EC50 [2]: 2.32 nM
- Maximum mean fluorescence intensity [2]: 50400
- EC50 [3]: 1.56 nM
- Maximum mean fluorescence intensity [3]: 210000

B3: F3.83.9 (antibody, human IgG1, V domains shown)
VH: DVQLQESGPGLVKPSQSLSLTCSVTGYSITSGYYWNWIRQFPGNKLEWMGYISYDGGNNYNPSLKNRISITRDTSKNQFFLKLNSVTTEDTATYFCAREDYSNWYFDVWGTGTTVTVSS
VL: DIVLTQSPASLAVSLGQRATISCRASQSVSKSSYSYMHWYQQKPGQSPKLLIKYASILKSGVPARFSGSGSGTDFTLNIHPVEEEDTATYYCQHSWEIPWTFGGGTKLEIK
notes: as for B1
- Proportion of chimeric antibody positive cells to B cells (%) at 1 nM [1]: 58%
- Proportion of chimeric antibody positive cells to B cells (%) at 10 nM [1]: 97%
- Proportion of chimeric antibody positive cells to B cells (%) at 100 nM [1]: 99%
- EC50 (human CD19 on Raji cells): 1.75 nM
- Maximum mean fluorescence intensity (human CD19 on Raji cells): 29700
- EC50 [2]: 1.34 nM
- Maximum mean fluorescence intensity [2]: 52200
- EC50 [3]: 1.12 nM
- Maximum mean fluorescence intensity [3]: 198000

B5: F3.121.4 (antibody, human IgG1, V domains shown)
VH: QVQLQQPGAELVVPGTSVKLSCKASGYTFTNYWMHWVKQRPGQGLEWIGEIDPSDNYANYNQEFQGKATLTVDKSSSTAYMQLSSLTSDDSAVYYCARHDGYFGALDYWGQGTSVTVSS
VL: EIVLTQSPTTMAASPGEKITITCSASSSISSNYLHWYQQKPGFSPKFLIYRTSNLASGVPARFSGSGSGTSYSLTIGTMEAEDVATYYCQQASSIPRMFTFGSGTKLEIK
notes: as for B1
- Proportion of chimeric antibody positive cells to B cells (%) at 1 nM [1]: 1%
- Proportion of chimeric antibody positive cells to B cells (%) at 10 nM [1]: 2%
- Proportion of chimeric antibody positive cells to B cells (%) at 100 nM [1]: 2%
- EC50 (human CD19 on Raji cells): 0.31 nM
- Maximum mean fluorescence intensity (human CD19 on Raji cells): 32900
- EC50 [2]: 0.3 nM
- Maximum mean fluorescence intensity [2]: 53700
- Maximum mean fluorescence intensity [3]: 80

Continued, values first:

- Proportion of chimeric antibody positive cells to B cells (%) at 1 nM [1]: 1%
- Proportion of chimeric antibody positive cells to B cells (%) at 10 nM [1]: 2%
- Proportion of chimeric antibody positive cells to B cells (%) at 100 nM [1]: 9%
- EC50 (human CD19 on Raji cells): 0.43 nM
- Maximum mean fluorescence intensity (human CD19 on Raji cells): 35800
- EC50 [2]: 0.61 nM
- Maximum mean fluorescence intensity [2]: 63700
- EC50 [3]: 3.99 nM
- Maximum mean fluorescence intensity [3]: 98400
B2: F3.64.4 (antibody, human IgG1, V domains shown)
VH: EVQLQQSGPELVKPGASVKISCKASGYTFTDYHINWVKQSHGKSPEWIGDINPNNGGTTYNQKFKDKATLTVDKSSSTAFMELRSLTSEDSAVYYCARFITTVVAWYFDVWGTGTTVTVSS
VL: DIQMTQSPASLSVSVGETVTITCRASENIYSNLAWYQQKQGKSPQLLVYAATNLADGVPSRFSGSGSGTQYSLKINSLQSEDFGNYYCQRFWDTPRTFGGGTKLEIK
notes: as for B1

- Proportion of chimeric antibody positive cells to B cells (%) at 1 nM [1]: 1%
- Proportion of chimeric antibody positive cells to B cells (%) at 10 nM [1]: 1%
- Proportion of chimeric antibody positive cells to B cells (%) at 100 nM [1]: 6%
- EC50 (human CD19 on Raji cells): 0.96 nM
- Maximum mean fluorescence intensity (human CD19 on Raji cells): 28800
- EC50 [2]: 0.39 nM
- Maximum mean fluorescence intensity [2]: 34100
- Maximum mean fluorescence intensity [3]: 176
B4: F3.113.16 (antibody, human IgG1, V domains shown)
VH: QVQLQQPGAELVKPGASVKLSCKASGYTFTNYWMQWVKQRPGQGLEWIGEIDPSDSYINYNQKFKGKATLTADTSSSTAYMQLSSLTYEDSAVYYCARPVTVPWYFDVWGTGTTVTVSS
VL: B5 VL with S26T, F47L, A92G, S94A, M98I
notes: as for B1
